We go through two molecules from publication PMC5628889, “Thermal adaptation of mesophilic and thermophilic FtsZ assembly by modulation of the critical concentration” (PLoS ONE, 2017).

In data set [1] the target is Methanocaldococcus jannaschii FtsZ-his6 fusion protein (Methanocaldococcus jannaschii) (UniProt Q57816). Nature of the data set: negative-stain transmission electron microscopy; 10 μM MjFtsZ polymerized with 1 mM GTP at 80°C; 50 mM MES-KOH pH 6.5, 5 mM MgCl2, 300 mM KCl; 2% uranyl acetate.
The target is the same in data set [2]. Nature of the data set: van't Hoff analysis of critical concentrations (light scattering + GTPase activity); MjFtsZ; global fit of ln(1/CC) vs 1/T (40-80°C) with the integrated van't Hoff equation; parameters extrapolated to the optimal growth temperature; polymer elongation, apparent.
Data set [3] shares this target. The experiment in a line: 90° light scattering; MjFtsZ self-assembly started with 1 mM GTP; 50 mM MES-KOH pH 6.5, 5 mM MgCl2, 300 mM KCl; 40°C; critical concentration from extent of polymerization vs total protein; k_depol from the slope of the disassembly stage (7 μM); monomer addition at polymer ends, apparent.
Data set [4] has the same target.
Data set [5] has the same target. Nature of the data set: 90° light scattering; MjFtsZ self-assembly started with 1 mM GTP; 50 mM MES-KOH pH 6.5, 5 mM MgCl2, 300 mM KCl; 80°C; critical concentration from extent of polymerization vs total protein; k_depol from the slope of the disassembly stage (7 μM); monomer addition at polymer ends, apparent.
For data set [6] the target is unchanged. Nature of the data set: 90° light scattering; MjFtsZ self-assembly started with 1 mM GTP; 50 mM MES-KOH pH 6.5, 5 mM MgCl2, 300 mM KCl; 70°C; critical concentration from extent of polymerization vs total protein; k_depol from the slope of the disassembly stage (7 μM); monomer addition at polymer ends, apparent.
Data set [7] has the same target. Nature of the data set: 90° light scattering; MjFtsZ self-assembly started with 1 mM GTP; 50 mM MES-KOH pH 6.5, 5 mM MgCl2, 300 mM KCl; 60°C; critical concentration from extent of polymerization vs total protein; k_depol from the slope of the disassembly stage (7 μM); monomer addition at polymer ends, apparent.
The target is the same in data set [8]. The experiment in a line: 90° light scattering; MjFtsZ self-assembly started with 1 mM GTP; 50 mM MES-KOH pH 6.5, 5 mM MgCl2, 300 mM KCl; 50°C; critical concentration from extent of polymerization vs total protein; k_depol from the slope of the disassembly stage (7 μM); monomer addition at polymer ends, apparent.
Data set [9] concerns the molecule itself. Nature of the data set: negative-stain transmission electron microscopy; 10 μM EcFtsZ polymerized with 1 mM GTP at 30°C; 50 mM MES-KOH pH 6.5, 5 mM MgCl2, 50 mM KCl; 2% uranyl acetate.
Data set [10] concerns the molecule itself. The experiment in a line: van't Hoff analysis of critical concentrations (light scattering + GTPase activity); EcFtsZ; global fit of ln(1/CC) vs 1/T (10-30°C) with the integrated van't Hoff equation; parameters extrapolated to the optimal growth temperature; polymer elongation, apparent.

The term stoichiometry N denotes the number of molecules, sites or subunits per partner or assembly. On to “Methanocaldococcus jannaschii FtsZ-his6 fusion protein (from UniProt Q57816 1-364) (natural protein)”, for which the stoichiometry N in data set [1] is > 120 subunits. Further, the dH in data set [2] is 5.57 kJmol^−1. Besides, in data set [3], the critical concentration for polymerization C (C-Pol) (= 1/Kp) worked out at 3.9 µM. In data set [4], this molecule displayed a critical concentration for the GTPase activity C (C-GTPase) (malachite green phosphate release, 1 mM GTP), 40°C of 5.5 µM; a critical concentration for the GTPase activity C (C-GTPase) (malachite green phosphate release, 1 mM GTP), 45°C of 4.7 µM; a critical concentration for the GTPase activity C (C-GTPase) (malachite green phosphate release, 1 mM GTP), 50°C of 3.3 µM; a critical concentration for the GTPase activity C (C-GTPase) (malachite green phosphate release, 1 mM GTP), 55°C of 3.3 µM. In data set [4], this molecule returned a critical concentration for the GTPase activity C (C-GTPase) (malachite green phosphate release, 1 mM GTP), 65°C of 2.2 µM; a critical concentration for the GTPase activity C (C-GTPase) (malachite green phosphate release, 1 mM GTP), 70°C of 1 µM; a critical concentration for the GTPase activity C (C-GTPase) (malachite green phosphate release, 1 mM GTP), 80°C of 1.1 µM. Also, in data set [5], the critical concentration for polymerization C (C-Pol) (= 1/Kp) was 1.1 µM. The critical concentration for polymerization C (C-Pol) (= 1/Kp) in [6] amounted to 1.6 µM. In addition, the critical concentration for polymerization C (C-Pol) (= 1/Kp) in data set [7] was 1.6 µM. The critical concentration for polymerization C (C-Pol) (= 1/Kp) in data set [8] was 1.8 µM.

B1: Wild type Escherichia coli FtsZ (natural protein, UniProt P0A9A6 1-383, looked up)
chain: MFEPMELTNDAVIKVIGVGGGGGNAVEHMVRERIEGVEFFAVNTDAQALRKTAVGQTIQIGSGITKGLGAGANPEVGRNAADEDRDALRAALEGADMVFIAAGMGGGTGTGAAPVVAEVAKDLGILTVAVVTKPFNFEGKKRMAFAEQGITELSKHVDSLITIPNDKLLKVLGRGISLLDAFGAANDVLKGAVQGIAELITRPGLMNVDFADVRTVMSEMGYAMMGSGVASGEDRAEEAAEMAISSPLLEDIDLSGARGVLVNITAGFDLRLDEFETVGNTIRAFASDNATVVIGTSLDPDMNDELRVTVVATGIGMDKRPEITLVTNKQVQQPVMDRYQQHGMAPLTQEQKPVAKVVNDNAPQTAKEPDYLDIPAFLRKQAD
notes: Cell division protein FtsZ, Escherichia coli, wild type; assembly was started with 1 mM GTP; also called EcFtsZ; mesophilic EcFtsZ; source: E. coli BL21 (DE3), overexpressed, purified (polymerization-depolymerization cycles)
As to B1, in data set [9], the “stoichiometry N” value is > 120 subunits. For the same molecule, the dH in [10] is -18.4 kJmol^−1.
